Results on one molecule are retold here after patent publication US20190382455A1 (Sanofi, published 2019).

The target in assay [1] is T1, MMP-9 proform (UniProt P14780 20-707).
T1 construct: Used as analyte in SPR; also called proform MMP-9; proform MMP9
In words: SPR (Biacore T200), biotinylated fusion molecule captured on CAP chip, MMP-9 proform as analyte.

Assay [2] deals with T2, activated MMP-9 (UniProt P14780 107-707, limits assumed).
T2 construct: Used as analyte in SPR
Kind of assay: SPR (Biacore T200), biotinylated fusion molecule captured on CAP chip, activated MMP-9 as analyte.

T2 sequence (P14780 107-707 limits assumed): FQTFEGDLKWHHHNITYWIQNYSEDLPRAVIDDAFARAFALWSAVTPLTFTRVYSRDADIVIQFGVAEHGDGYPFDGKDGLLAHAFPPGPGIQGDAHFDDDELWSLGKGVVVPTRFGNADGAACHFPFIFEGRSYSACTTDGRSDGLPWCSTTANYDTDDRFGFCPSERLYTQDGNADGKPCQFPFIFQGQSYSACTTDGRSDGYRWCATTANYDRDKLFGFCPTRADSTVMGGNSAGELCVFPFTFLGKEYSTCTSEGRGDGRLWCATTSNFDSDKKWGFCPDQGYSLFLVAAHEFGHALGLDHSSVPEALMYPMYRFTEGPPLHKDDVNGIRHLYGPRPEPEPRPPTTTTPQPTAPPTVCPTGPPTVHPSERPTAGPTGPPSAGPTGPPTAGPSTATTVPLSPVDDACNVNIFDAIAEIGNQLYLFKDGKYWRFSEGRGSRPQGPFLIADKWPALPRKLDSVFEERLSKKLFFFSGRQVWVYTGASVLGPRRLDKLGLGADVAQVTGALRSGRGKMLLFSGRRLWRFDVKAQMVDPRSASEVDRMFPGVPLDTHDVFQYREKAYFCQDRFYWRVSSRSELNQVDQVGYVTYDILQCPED
T1 sequence (P14780 20-707 limits assumed): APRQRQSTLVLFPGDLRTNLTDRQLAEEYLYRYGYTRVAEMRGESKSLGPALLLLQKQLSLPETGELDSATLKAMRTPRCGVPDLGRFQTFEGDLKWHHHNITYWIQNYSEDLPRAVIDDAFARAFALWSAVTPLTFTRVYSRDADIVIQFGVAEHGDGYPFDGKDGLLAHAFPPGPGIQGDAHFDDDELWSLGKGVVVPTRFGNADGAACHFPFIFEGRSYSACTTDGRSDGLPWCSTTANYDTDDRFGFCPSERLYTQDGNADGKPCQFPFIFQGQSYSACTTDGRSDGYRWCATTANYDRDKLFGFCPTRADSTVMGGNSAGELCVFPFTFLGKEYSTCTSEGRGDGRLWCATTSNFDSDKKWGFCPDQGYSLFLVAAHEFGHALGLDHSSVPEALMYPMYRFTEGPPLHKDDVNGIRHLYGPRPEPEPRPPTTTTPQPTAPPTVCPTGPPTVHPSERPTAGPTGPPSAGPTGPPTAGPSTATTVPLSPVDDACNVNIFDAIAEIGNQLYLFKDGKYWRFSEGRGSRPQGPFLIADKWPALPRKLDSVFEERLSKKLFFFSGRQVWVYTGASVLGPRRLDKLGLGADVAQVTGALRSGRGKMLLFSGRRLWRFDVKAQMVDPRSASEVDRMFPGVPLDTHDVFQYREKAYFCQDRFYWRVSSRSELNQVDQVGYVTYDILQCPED

B1: fusion molecule of SEQ ID NO: 134 (designed binder)
chain: QDSTSDLIPAPPLSKVPLQQNFQDNQFQGKWYVVGVAGNTILREDKDPGKMNAAIYELKEDKSYDVTDVRFIRKKCHYYIDTFVPGSQPGEFTLGNIKSYPGTTSQLVRVVSTNYNQHAMVFFKIVRQNREIFWITLYGRTKELTSELKENFIRFSKSLGLPENHIVFPVPIDQCIDGGGGGSGGGGSQDSTSDLIPAPPLSKVPLQQNFQDNQFQGKWYVVGWAGNTALREDKDPPKMPAVIYELKEDKSYDVTDVQFPEKECIYSTITFVPGSQPGEFTLGGIKSSPGQTSHLVRVVSTNYNQHAMVFFKYVTQNREGFNIALYGRTKELTSELKENFIRFSKSLGLPENHIVFPVPIDQCIDGGGGGSGGGGSQDSTSDLIPAPPLSKVPLQQNFQDNQFQGKWYVVGEAGNLARREDKDPMKMMATIYELKEDKSYDVTEVRFRHKKCKYDIVTFVPGSQPGEFTLGLIKSDPGQTPELVRVVSTNYNQHAMVFFKKVVQNREYFWITLYGRTKELTSELKENFIRFSKSLGLPENHIVFPVPIDQCIDGGGGGSGGGGSQDSTSDLIPAPPLSKVPLQQNFQDNQFQGKWYVVGHAGNQWLREGRDPRKMWATIYELKEDKSYDVTDVDFAIKKCLYRITTFVPGSQPGEFTLGNIKSHPGGTSGLVRVVSTNYNQHAMVFFKFVIQNREAFFITLYGRTKELTSELKENFIRFSKSLGLPENHIVFPVPIDQCIDG
modifications: biotinylated with EZ-Link NHS-PEG4-Biotin for capture on the chip
notes: also called RA10680550
Consider B1, for which the binding result in assay [1] and in assay [2] was “no binding (tested: ≥1 µM)” throughout.
